Residue numbers refer to the chain shown, from its start.
T1: FcγRIIa type R extracellular domain with C-terminal His tag (human, UniProt P12318 34-217)
T1 sequence (looked up): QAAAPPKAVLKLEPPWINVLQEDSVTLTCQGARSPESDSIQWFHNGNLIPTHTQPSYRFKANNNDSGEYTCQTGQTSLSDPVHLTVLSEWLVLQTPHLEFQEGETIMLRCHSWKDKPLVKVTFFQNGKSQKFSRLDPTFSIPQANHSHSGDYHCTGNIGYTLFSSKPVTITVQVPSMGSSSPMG

T2: FcγRIIb extracellular domain with C-terminal His tag (human, UniProt P31994 43-217)
T2 sequence (looked up): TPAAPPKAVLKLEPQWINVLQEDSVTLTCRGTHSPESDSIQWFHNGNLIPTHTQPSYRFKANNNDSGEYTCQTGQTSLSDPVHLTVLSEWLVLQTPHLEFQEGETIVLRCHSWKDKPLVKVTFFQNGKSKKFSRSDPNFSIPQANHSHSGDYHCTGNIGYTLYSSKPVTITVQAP

T3: human FcγRIIa type R (Arg131) extracellular domain with C-terminal His tag (human, UniProt P12318 34-217)
T3 sequence (looked up): T1 sequence (looked up)

T4: human FcγRIIb extracellular domain with C-terminal His tag (human, UniProt P31994 43-217)
T4 sequence (looked up): T2 sequence (looked up)

B1: IL6R-BP483/IL6R-L (antibody, human IgG1, kappa)
heavy: QVQLQESGPGLVKPSETLSLTCAVSGHSISHDHAWSWVRQPPGEGLEWIGFISYSGITNYNPSLQGRVTISRDNSKNTLYLQMNSLRAEDTAVYYCARSLARTTAMDYWGEGTLVTVSSASTKGPSVFPLAPSSKSTSGGTAALGCLVKDYFPEPVTVSWNSGALTSGVHTFPAVLQSSGLYSLSSVVTVPSSSLGTQTYICNVNHKPSNTKVDKKVEPKSCDKTHTCPPCPAPDLLGDDSVFLFPPKPKDTLMISRTPEVTCVVVDLAEEDGEVKFNWYVDGVEVHNAKTKPREEQYNSTYRVVSVLTVLHQDWLNGKEYKCKVSNKALPAPIEKTISKAKGQPREPQVYTLPPSRDELTKNQVSLTCLVKGFYPSDIAVEWESNGQPENNYKTTPPVLDSDGSFFLYSKLTVDKSRWQQGNVFSCSVMHEALHNHYTQESLSLSP
light: not shown
B2: IL6R-BP496/IL6R-L (antibody, human IgG1, kappa)
heavy: B1 heavy with V266I, L268V, Y298D
light: not shown
B3: IL6R-BP488/IL6R-L (antibody, human IgG1, kappa)
heavy: B1 heavy with V266I, L268V, Y298D, A332R
light: not shown
B4: IL6R-BP487/IL6R-L (antibody, human IgG1, kappa)
heavy: B1 heavy with V266I, L268V, A332R, P398M
light: not shown
B5: IL6R-BP489/IL6R-L (antibody, human IgG1, kappa)
heavy: B1 heavy with V266I, L268V, Y298D, A332R, P398M
light: not shown
B6: IL6R-BP492/IL6R-L (antibody, human IgG1, kappa)
heavy: B1 heavy with D235E, D239G, V266I, L268V
light: not shown
B7: IL6R-BP498/IL6R-L (antibody, human IgG1, kappa)
heavy: B1 heavy with V266I, L268V, A332R, P398L
light: not shown
B8: IL6R-BP494/IL6R-L (antibody, human IgG1, kappa)
heavy: B1 heavy with D235E, L268V, Y298D, A332R
light: not shown
B9: IL6R-BP491/IL6R-L (antibody, human IgG1, kappa)
heavy: B1 heavy with D235E, V266I, L268V, Y298D, A332R
light: not shown
B10: IL6R-BP563/IL6R-L (antibody, human IgG1, kappa)
heavy: B1 heavy with L268V, A269S, E274D, Y298D, A332R
light: not shown
B11: IL6R-BP503/IL6R-L (antibody, human IgG1, kappa)
heavy: B1 heavy with V266I, L268V, Y298D, A329G, A332R, P398M
light: not shown
B12: IL6R-BP536/IL6R-L (antibody, human IgG1, kappa)
heavy: B1 heavy with V266I, L268V, A269S, Y298D, A329G, A332R, P398M
light: not shown
B13: IL6R-BP511/IL6R-L (antibody, human IgG1, kappa)
heavy: B1 heavy with D235E, V266I, L268V, E274P, Y298D, A332R
light: not shown
B14: IL6R-BP504/IL6R-L (antibody, human IgG1, kappa)
heavy: B1 heavy with V266I, L268V, E274P
light: not shown
B15: IL6R-BP540/IL6R-L (antibody, human IgG1, kappa)
heavy: B1 heavy with D235E, V266I, L268V, A269S, E274P, Y298D, A332R
light: not shown
B16: IL6R-BP538/IL6R-L (antibody, human IgG1, kappa)
heavy: B1 heavy with D235E, V266I, L268V, A269S, A332R
light: not shown
B17: IL6R-BP565/IL6R-L (antibody, human IgG1, kappa)
heavy: B1 heavy with L268V, Y298D, A332R
light: not shown
B18: IL6R-BP508/IL6R-L (antibody, human IgG1, kappa)
heavy: B1 heavy with V266I, L268V, E274P, Y298D
light: not shown
B19: IL6R-BP505/IL6R-L (antibody, human IgG1, kappa)
heavy: B1 heavy with V266I, L268V, E274D
light: not shown
B20: IL6R-BP509/IL6R-L (antibody, human IgG1, kappa)
heavy: B1 heavy with V266I, L268V, E274D, Y298D
light: not shown
B21: IL6R-BP551/IL6R-L (antibody, human IgG1, kappa)
heavy: B1 heavy with D235E, V266I, L268V, A269S, E274D, Y298D, A332R
light: not shown
B22: IL6R-BP502/IL6R-L (antibody, human IgG1, kappa)
heavy: B1 heavy with V266I, L268V, Y298D, A329G, A332R
light: not shown
B23: IL6R-BP552/IL6R-L (antibody, human IgG1, kappa)
heavy: B1 heavy with V266I, L268V, E274D, Y298D, A332R
light: not shown
B24: IL6R-BP561/IL6R-L (antibody, human IgG1, kappa)
heavy: B1 heavy with L268V, A269S, E270D, E274D, Y298D, A332R
light: not shown
B25: IL6R-BP532/IL6R-L (antibody, human IgG1, kappa)
heavy: B1 heavy with V266I, L268V, A269S, Y298D, A332R, P398M
light: not shown
B26: IL6R-BP531/IL6R-L (antibody, human IgG1, kappa)
heavy: B1 heavy with V266I, L268V, A269G, Y298D, A332R, P398M
light: not shown
B27: IL6R-BP535/IL6R-L (antibody, human IgG1, kappa)
heavy: B1 heavy with V266I, L268V, A269G, Y298D, A329G, A332R, P398M
light: not shown
B28: IL6R-BP534/IL6R-L (antibody, human IgG1, kappa)
heavy: B1 heavy with V266I, L268V, A269S, Y298D, A332R, P398L
light: not shown
B29: IL6R-BP537/IL6R-L (antibody, human IgG1, kappa)
heavy: B1 heavy with D235E, V266I, L268V, A269G, A332R
light: not shown
B30: IL6R-BP554/IL6R-L (antibody, human IgG1, kappa)
heavy: B1 heavy with D235E, V266I, L268V, E274D, A332R
light: not shown
B31: IL6R-BP555/IL6R-L (antibody, human IgG1, kappa)
heavy: B1 heavy with D235E, V266I, L268V, E274D, Y298D, A332R
light: not shown
B32: IL6R-BP556/IL6R-L (antibody, human IgG1, kappa)
heavy: B1 heavy with D235E, V266I, L268V, A269G, Y298D, A332R
light: not shown
B33: IL6R-BP553/IL6R-L (antibody, human IgG1, kappa)
heavy: B1 heavy with V266I, L268V, E274D, A332R
light: not shown

target: T1, FcγRIIa type R extracellular domain …; test: ratio of SPR KDs vs IL6R-B3/IL6R-L

| Binder | KD (IIaR) of parent polypeptide/KD (IIaR) of altered polypeptide |
| --- | --- |
| B1 | 0.8 |
| B2 | 2.3 |
| B3 | 14.8 |
| B4 | 28.3 |
| B5 | 25.7 |
| B6 | 1.2 |
| B7 | 21.7 |
| B8 | 4.3 |
| B9 | 9.3 |

target: T2, FcγRIIb extracellular domain with …; test: ratio of SPR KDs vs IL6R-B3/IL6R-L

| Binder | KD (IIb) of parent polypeptide/KD (IIb) of altered polypeptide |
| --- | --- |
| B1 | 39.7 |
| B3 | 1680 |
| B4 | 2700 |
| B5 | 3100 |
| B6 | 131 |
| B8 | 471 |

target: T3, human FcγRIIa type R (Arg131) …; test: SPR

| Binder | KD (IIaR) of parent polypeptide/KD (IIaR) of altered polypeptide |
| --- | --- |
| B10 | 2.4 |
| B11 | 19.4 |
| B12 | 13.9 |
| B13 | 6.3 |
| B14 | 2.4 |
| B15 | 5.2 |
| B16 | 5.4 |
| B17 | 4.8 |
| B18 | 2 |
| B19 | 2.6 |
| B20 | 2.1 |
| B21 | 4.5 |
| B22 | 10.1 |

target: T4, human FcγRIIb extracellular domain with …; test: SPR

| Binder | KD (IIb) of parent polypeptide/KD (IIb) of altered polypeptide |
| --- | --- |
| B10 | 196 |
| B11 | 1810 |
| B12 | 1040 |
| B13 | 891 |
| B14 | 128 |
| B15 | 541 |
| B16 | 587 |
| B17 | 565 |
| B18 | 149 |
| B19 | 145 |
| B20 | 174 |
| B21 | 482 |
| B22 | 840 |

target: T2, FcγRIIb extracellular domain with …; test: ratio of SPR KDs, FcγRIIaH over FcγRIIb, same variant

| Binder | KD (IIaH)/KD (IIb) |
| --- | --- |
| B2 | 201 |
| B4 | 730 |
| B5 | 870 |
| B7 | 564 |
| B8 | 821 |
| B9 | 724 |

target: T2, FcγRIIb extracellular domain with …; test: ratio of SPR KDs, FcγRIIaR over FcγRIIb, same variant

| Binder | KD (IIaR)/KD (IIb) |
| --- | --- |
| B1 | 16.8 |
| B2 | 25.5 |
| B3 | 40.1 |
| B7 | 30.8 |
| B9 | 38.8 |

target: human FcγRIIIa type V (Val158) extracellular domain with C-terminal His tag (human, UniProt P08637 17-208); test: SPR
Sequence (P08637 17-208 F176V): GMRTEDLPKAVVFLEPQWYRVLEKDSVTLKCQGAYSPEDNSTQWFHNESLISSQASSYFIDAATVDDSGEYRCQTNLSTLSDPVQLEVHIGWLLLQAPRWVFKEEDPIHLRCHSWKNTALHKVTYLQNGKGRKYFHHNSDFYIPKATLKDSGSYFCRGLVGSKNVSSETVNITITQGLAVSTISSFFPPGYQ

| Binder | Kd |
| --- | --- |
| B23 | 30 µM |
| B10 | 38 µM |
| B24 | 37 µM |
| B12 | 23 µM |
| B25 | 26 µM |
| B26 | 27 µM |
| B15 | 39 µM |
| B16 | 33 µM |
| B17 | 21 µM |
| B27 | 33 µM |
| B28 | 25 µM |
| B29 | 36 µM |
| B30 | 24 µM |
| B21 | 48 µM |
| B31 | 30 µM |
| B32 | 60 µM |
| B33 | 20 µM |

From patent publication US20260217793A1 (Chugai, published 2026)
